Positions count from the first letter of the chain named. Numbers in names are those of the source.
What was measured:
[1] = target: T1, tumor necrosis factor alpha converting enzyme (TACE), endogenous (human, UniProt P78536 215-824); assay: co-immunofluorescence (co-localisation) in PC-3U cells
T1 construct: whole, on cells; also called ADAM17
Experimental: Panel e: PC-3U cells were treated with or without TGFβ for 30 min as indicated. […] Their colocalization is shown by the yellow color, as shown in merged images. The images on the left are enlarged from the areas enclosed in white boxes in the images to the right. DAPI staining was performed to detect cell nuclei (blue).

[2] = target: Presenilin 1 (PS1), endogenous (human, UniProt P49768 1-467); assay: co-immunoprecipitation from transfected PC-3U cells

T1 sequence (P78536 215-824): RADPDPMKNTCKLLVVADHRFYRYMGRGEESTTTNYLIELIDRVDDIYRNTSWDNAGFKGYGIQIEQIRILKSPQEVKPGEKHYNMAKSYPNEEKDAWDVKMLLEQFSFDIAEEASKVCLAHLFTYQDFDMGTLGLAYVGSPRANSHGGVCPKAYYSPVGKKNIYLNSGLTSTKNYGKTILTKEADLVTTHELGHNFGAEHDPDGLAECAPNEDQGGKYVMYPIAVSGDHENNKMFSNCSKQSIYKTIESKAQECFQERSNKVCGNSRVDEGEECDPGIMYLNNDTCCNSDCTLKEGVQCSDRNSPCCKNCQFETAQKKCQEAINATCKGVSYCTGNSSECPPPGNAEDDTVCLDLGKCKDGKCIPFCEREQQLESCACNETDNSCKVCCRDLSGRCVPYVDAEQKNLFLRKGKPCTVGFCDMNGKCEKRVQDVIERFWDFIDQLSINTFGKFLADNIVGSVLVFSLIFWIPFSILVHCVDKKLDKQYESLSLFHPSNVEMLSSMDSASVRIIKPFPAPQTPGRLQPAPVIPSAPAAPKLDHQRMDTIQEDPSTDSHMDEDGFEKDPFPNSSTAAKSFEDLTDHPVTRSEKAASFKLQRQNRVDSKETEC

B1: type I receptor of transforming growth factor beta (TβRI), endogenous, full length (receptor)
chain: LQCFCHLCTKDNFTCVTDGLCFVSVTETTDKVIHNSMCIAEIDLIPRDRPFVCAPSSKTGSVTTTYCCNQDHCNKIELPTTVKSSPGLGPVELAAVIAGPVCFVCISLMLMVYICHNRTVIHHRVPNEEDPSLDRPFISEGTTLKDLIYDMTTSGSGSGLPLLVQRTIARTIVLQESIGKGRFGEVWRGKWRGEEVAVKIFSSREERSWFREAEIYQTVMLRHENILGFIAADNKDNGTWTQLWLVSDYHEHGSLFDYLNRYTVTVEGMIKLALSTASGLAHLHMEIVGTQGKPAIAHRDLKSKNILVKKNGTCCIADLGLAVRHDSATDTIDIAPNHRVGTKRYMAPEVLDDSINMKHFESFKRADIYAMGLVFWEIARRCSIGGIHEDYQLPYYDLVPSDPSVEEMRKVVCEQKLRPNIPNRWQSCEALRVMAKIMRECWYANGAARLTALRIKKTLSQLSQQEGIKM
notes: Endogenous receptor of human PC-3U prostate cancer cells, studied in cell lysates, cell fractions and fixed cells; also called TβRI-FL; ALK5
binding result [1]: binds

B2: HA-tagged caE161A TβRI mutant (HA-ca E161A) (receptor)
chain: B1 chain with E128A, T171D
notes: Expressed by transient transfection in PC-3U cells; also called HA-E161A; E161A mutant; not shown: HA tag fused to the C-terminus
binding result [2]: no binding

Source: patent US20140140998A1 (LUDWIG INSTITUTE FOR CANCER RESEARCH, published 2014)
